Assay results from patent US11058748B2, “Stable liquid formulations of glucagon-like peptide 1 or analogues thereof” (Rose Pharma LLC, priority 2019, dated 2021).

Tests used:
[1] = High performance size-exclusion chromatography (HP-SEC): monomer, HMWS, LMWS; type: physicochemical; details: method test
Procedure: The ability of the HP-SEC method to detect changes in the monomer, HMWS and LMWS content was tested with stressed samples. […] Multiple freeze-thaw cycles had no influence on the SEC profile.

[2] = system: irritable bowel syndrome (IBS); details: clinical trials; cited from earlier work
[3] = system: constipation predominant IBS (IBS-C); details: cited from earlier work
[4] = in solution; cited from earlier work

H-HVEGTFTSDVSSYLEGQAAKEFIAWLVKGRG-OH [ROSE-010]
overall signal intensity (HP-SEC) ([1]; mechanical stress): substantial loss | SEC profile ([1]; multiple freeze-thaw cycles): no influence | HMWS content ([1]; one week storage at 40° C.): slight increase | acute exacerbations of irritable bowel syndrome (IBS) [2]: reduce acute exacerbations of irritable bowel syndrome (IBS) | colonic transit ([3]; at 48 h with 30 and 100 μg): accelerated colonic transit | gastric emptying of solids [3]: delayed gastric emptying of solids | noncovalent aggregates [4]: forms noncovalent aggregates in solution
